Results: publication PMC9482650, “Quantitative fragmentomics allow affinity mapping of interactomes” (Nature Communications, 2022)

B1: TRAF2, Q12933 (peptide)
chain: IKAIVDLTGL
B2: HCN2, Q9UL51 (peptide)
chain: SARSRLSSNL
B3: AQP6, Q13520 (peptide)
chain: GSGAVEMESV

What was measured:
Test in all cases: holdup assay
Set-up in all cases: key: below the threshold = too weak to quantify, mostly under pKd 3.1 to 4
Conditions in all cases: plain residues with an end cap or a label only (N-terminal biotin on a linker: ado-ado)
[1] = target: T1, APBA1_2, Q02410
T1 sequence (Q02410 742-832, limits assumed, looked up): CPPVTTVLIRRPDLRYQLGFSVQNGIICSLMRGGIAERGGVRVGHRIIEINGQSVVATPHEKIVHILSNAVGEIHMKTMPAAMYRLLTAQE

[2] = target: T2, APBA2_1, Q99767
T2 sequence (Q99767 563-664, limits assumed, looked up): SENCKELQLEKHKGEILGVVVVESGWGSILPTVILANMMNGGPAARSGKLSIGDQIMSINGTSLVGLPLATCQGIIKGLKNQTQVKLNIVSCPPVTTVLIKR

[3] = target: CASK, O14936
[4] = target: T3, DLG3_3, Q92796
T3 sequence (Q92796 374-475, limits assumed, looked up): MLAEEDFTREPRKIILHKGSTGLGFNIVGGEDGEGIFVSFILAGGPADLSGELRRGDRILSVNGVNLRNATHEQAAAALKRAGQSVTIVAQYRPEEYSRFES

[5] = target: FRMPD2_2, Q68DX3
[6] = target: FRMPD2_3, Q68DX3
[7] = target: GORASP1, Q9BQQ3
[8] = target: GRIP2_3, Q9C0E4
[9] = target: GRIP2_4, Q9C0E4
[10] = target: GRIP2_5, Q9C0E4
[11] = target: GRIP2_6, Q9C0E4
[12] = target: HTRA2, O43464
[13] = target: Inadl_2, Q8NI35
[14] = target: LAP2, Q96RT1
[15] = target: LNX1_1, Q8TBB1
[16] = target: LNX1_2, Q8TBB1
[17] = target: MAGI1_1, Q96QZ7
[18] = target: T4, MPDZ_10, O75970
T4 sequence (O75970 1624-1722, limits assumed, looked up): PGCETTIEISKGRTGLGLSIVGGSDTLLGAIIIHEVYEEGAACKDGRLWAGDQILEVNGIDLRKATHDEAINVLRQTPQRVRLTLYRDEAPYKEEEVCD

[19] = target: NHERF2_2, Q15599
[20] = target: T5, NHERF3_1, Q5T2W1
T5 sequence (Q5T2W1 4-100, limits assumed, looked up): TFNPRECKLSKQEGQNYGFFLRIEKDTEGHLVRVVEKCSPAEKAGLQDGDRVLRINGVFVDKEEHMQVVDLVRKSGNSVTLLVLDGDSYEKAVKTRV

[21] = target: T6, PARD3B_1, Q8TEW8
T6 sequence (Q8TEW8 196-299, limits assumed, looked up): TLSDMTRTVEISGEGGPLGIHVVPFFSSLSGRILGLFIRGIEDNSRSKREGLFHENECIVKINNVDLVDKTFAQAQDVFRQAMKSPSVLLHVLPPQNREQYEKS

[22] = target: PARD3_3, Q8TEW0
[23] = target: T7, PDZRN3_1, Q9UPQ7
T7 sequence (Q9UPQ7 244-349, limits assumed, looked up): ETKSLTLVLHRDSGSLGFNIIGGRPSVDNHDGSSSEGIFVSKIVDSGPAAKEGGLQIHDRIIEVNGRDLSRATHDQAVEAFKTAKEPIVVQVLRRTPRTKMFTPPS

[24] = target: T8, PTPN13_1, Q12923
T8 sequence (Q12923 1088-1188, limits assumed, looked up): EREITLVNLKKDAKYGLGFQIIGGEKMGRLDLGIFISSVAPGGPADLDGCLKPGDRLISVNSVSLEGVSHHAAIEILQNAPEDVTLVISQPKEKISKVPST

[25] = target: T9, SNTG2, Q9NY99
T9 sequence (Q9NY99 68-166, limits assumed, looked up): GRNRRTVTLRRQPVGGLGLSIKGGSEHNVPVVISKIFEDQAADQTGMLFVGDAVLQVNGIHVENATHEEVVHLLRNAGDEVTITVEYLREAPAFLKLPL

[26] = target: T10, TIAM2, Q8IVF5
T10 sequence (Q8IVF5 885-986, limits assumed, looked up): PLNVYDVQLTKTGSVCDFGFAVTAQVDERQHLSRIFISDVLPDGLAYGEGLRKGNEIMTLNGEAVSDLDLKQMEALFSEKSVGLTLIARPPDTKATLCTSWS

[27] = target: TJP1_3, Q07157
TJP1_3, Q07157, sequence (Q07157 416-512): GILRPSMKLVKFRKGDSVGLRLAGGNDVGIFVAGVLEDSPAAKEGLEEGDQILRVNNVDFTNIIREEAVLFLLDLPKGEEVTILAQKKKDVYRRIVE

Inadl_2, Q8NI35, sequence (Q8NI35 238-335): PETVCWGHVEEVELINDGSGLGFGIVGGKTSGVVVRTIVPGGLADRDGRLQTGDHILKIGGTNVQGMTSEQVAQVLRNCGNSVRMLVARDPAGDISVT
FRMPD2_2, Q68DX3, sequence (Q68DX3 944-1038): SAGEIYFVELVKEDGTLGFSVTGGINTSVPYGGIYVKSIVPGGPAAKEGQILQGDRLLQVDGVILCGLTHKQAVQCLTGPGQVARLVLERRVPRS
LNX1_2, Q8TBB1, sequence (Q8TBB1 371-470): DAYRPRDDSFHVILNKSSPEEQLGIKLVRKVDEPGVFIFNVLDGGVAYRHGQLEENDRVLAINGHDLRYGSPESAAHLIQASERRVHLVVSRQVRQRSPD
PARD3_3, Q8TEW0, sequence (Q8TEW0 582-685): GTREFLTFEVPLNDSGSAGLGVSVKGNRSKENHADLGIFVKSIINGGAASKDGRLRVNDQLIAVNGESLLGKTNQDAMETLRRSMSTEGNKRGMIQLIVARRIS
LNX1_1, Q8TBB1, sequence (Q8TBB1 261-371): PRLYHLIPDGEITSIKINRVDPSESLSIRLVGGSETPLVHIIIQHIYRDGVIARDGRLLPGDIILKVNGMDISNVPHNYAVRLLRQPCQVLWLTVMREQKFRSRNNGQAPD
NHERF2_2, Q15599, sequence (Q15599 142-238): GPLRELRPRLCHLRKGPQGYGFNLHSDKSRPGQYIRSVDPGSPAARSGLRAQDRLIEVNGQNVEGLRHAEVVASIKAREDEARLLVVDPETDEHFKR
FRMPD2_3, Q68DX3, sequence (Q68DX3 1073-1166): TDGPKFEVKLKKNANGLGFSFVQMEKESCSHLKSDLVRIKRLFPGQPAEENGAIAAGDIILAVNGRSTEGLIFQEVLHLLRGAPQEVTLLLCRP
LAP2, Q96RT1, sequence (Q96RT1 other isoform, or with tags, fused parts or gaps): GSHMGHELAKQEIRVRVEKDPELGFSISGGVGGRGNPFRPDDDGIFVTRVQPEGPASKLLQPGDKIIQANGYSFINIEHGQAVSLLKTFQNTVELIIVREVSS
GRIP2_5, Q9C0E4, sequence (Q9C0E4 544-642): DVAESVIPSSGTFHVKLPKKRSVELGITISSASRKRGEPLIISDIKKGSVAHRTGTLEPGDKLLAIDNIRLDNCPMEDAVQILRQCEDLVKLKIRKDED
HTRA2, O43464, sequence (O43464 355-458): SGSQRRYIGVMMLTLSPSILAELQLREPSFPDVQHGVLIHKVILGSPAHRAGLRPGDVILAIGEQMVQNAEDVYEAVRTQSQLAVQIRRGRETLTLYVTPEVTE
GRIP2_3, Q9C0E4, sequence (Q9C0E4 238-339): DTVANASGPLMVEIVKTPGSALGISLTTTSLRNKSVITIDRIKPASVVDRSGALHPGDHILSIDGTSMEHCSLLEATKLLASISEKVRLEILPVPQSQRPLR
GRIP2_4, Q9C0E4, sequence (Q9C0E4 446-548): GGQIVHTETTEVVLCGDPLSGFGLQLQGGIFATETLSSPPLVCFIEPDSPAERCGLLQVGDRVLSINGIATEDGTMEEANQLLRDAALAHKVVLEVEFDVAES
GORASP1, Q9BQQ3, sequence (Q9BQQ3 1-208): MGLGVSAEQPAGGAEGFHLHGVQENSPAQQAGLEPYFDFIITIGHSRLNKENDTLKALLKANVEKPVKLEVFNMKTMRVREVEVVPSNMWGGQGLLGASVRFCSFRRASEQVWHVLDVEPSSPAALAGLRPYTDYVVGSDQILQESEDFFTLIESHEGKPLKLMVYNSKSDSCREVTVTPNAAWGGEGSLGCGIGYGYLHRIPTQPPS
MAGI1_1, Q96QZ7, sequence (Q96QZ7 1-106): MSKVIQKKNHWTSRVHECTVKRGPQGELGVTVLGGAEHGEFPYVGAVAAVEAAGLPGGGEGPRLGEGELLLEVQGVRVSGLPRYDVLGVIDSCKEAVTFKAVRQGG
GRIP2_6, Q9C0E4, sequence (Q9C0E4 648-740): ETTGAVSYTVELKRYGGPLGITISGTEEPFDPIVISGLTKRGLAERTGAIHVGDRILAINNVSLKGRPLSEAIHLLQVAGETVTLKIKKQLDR
CASK, O14936, sequence (O14936 487-570): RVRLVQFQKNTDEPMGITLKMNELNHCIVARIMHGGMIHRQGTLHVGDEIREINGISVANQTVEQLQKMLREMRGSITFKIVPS

| Binder | pKd [1] | pKd [2] | pKd [3] | pKd [4] | pKd [5] | pKd [6] | pKd [7] | pKd [8] | pKd [9] | pKd [10] | pKd [11] | pKd [12] | pKd [13] | pKd [14] | pKd [15] | pKd [16] | pKd [17] | pKd [18] | pKd [19] | pKd [20] | also measured |
| --- | --- | --- | --- | --- | --- | --- | --- | --- | --- | --- | --- | --- | --- | --- | --- | --- | --- | --- | --- | --- | --- |
| B1 | below the threshold | below the threshold | below the threshold | below the threshold | below the threshold | below the threshold | below the threshold | below the threshold | below the threshold | below the threshold | below the threshold | below the threshold | below the threshold | below the threshold | below the threshold | below the threshold | below the threshold | below the threshold | 3.91 | 4.56 | pKd [21]: below the threshold; pKd [22]: below the threshold; pKd [23]: below the threshold; pKd [24]: below the threshold; pKd [25]: below the threshold; pKd [26]: below the threshold; pKd [27]: below the threshold |
| B2 | below the threshold | below the threshold | below the threshold | below the threshold | below the threshold | below the threshold | below the threshold | below the threshold | below the threshold | below the threshold | below the threshold | below the threshold | below the threshold | below the threshold | below the threshold | below the threshold | below the threshold | below the threshold | 4.44 | 4.72 | pKd [21]: 3.71; pKd [22]: below the threshold; pKd [23]: 3.63; pKd [24]: below the threshold; pKd [25]: below the threshold; pKd [26]: below the threshold; pKd [27]: below the threshold |
| B3 | 3.58 | below the threshold | below the threshold | below the threshold | below the threshold | below the threshold | below the threshold | below the threshold | below the threshold | below the threshold | below the threshold | below the threshold | below the threshold | below the threshold | below the threshold | below the threshold | below the threshold | below the threshold | below the threshold | below the threshold | pKd [21]: below the threshold; pKd [22]: below the threshold; pKd [23]: below the threshold; pKd [24]: below the threshold; pKd [25]: below the threshold; pKd [26]: below the threshold; pKd [27]: below the threshold |
